Measurements as given in publication PMC13436963.
Where a chain is given by its changes, count along the chain named. In names and notes the source's numbering stands.

Key:
[1] = biological target: EGFP-tagged full-length Drosophila Notch [Drosophila melanogaster]; test: luciferase-coupled co-immunoprecipitation (GFP-trap); details: S2 cells, Notch-GFP WT, n=4, parent: 1, read off a plot
[2] = biological target: T1, Drosophila Notch LNR domain F1563A fused to split firefly luciferase fragments, P07207; test: split-luciferase complementation assay; details: chain shown with the change; S2 cells; bar labelled 'F1563A + F1563A'; n=5; parent: 1.0; read off a plot
T1 chain: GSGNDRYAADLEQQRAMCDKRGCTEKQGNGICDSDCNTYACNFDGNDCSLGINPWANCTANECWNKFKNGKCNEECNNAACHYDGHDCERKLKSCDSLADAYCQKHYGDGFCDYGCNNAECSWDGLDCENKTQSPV

[3] = biological target: T2, Drosophila Notch LNR domain H1570A fused to split firefly luciferase fragments, P07207; test: split-luciferase complementation assay; details: chain shown with the change; S2 cells; bar labelled 'H1570A + H1570A'; n=5; parent: 1.0; read off a plot
T2 chain: T1 chain with A99F, H106A

With “luciferase-tagged Drosophila Notch LNR domain (residues G1465 to V1600) mutant F1563A [Drosophila melanogaster] / EGFP-tagged full-length Drosophila Notch [Drosophila melanogaster] chain 1 F99A” the ratio to parent ([1]; LNR-Luc F1563A) was 1.1.

“luciferase-tagged Drosophila Notch LNR domain (residues G1465 to V1600) mutant H1570A [Drosophila melanogaster] / EGFP-tagged full-length Drosophila Notch [Drosophila melanogaster] chain 1 H106A” was tested, and the ratio to parent ([1]; LNR-Luc H1570A) was 0.97.

B1: Drosophila Notch LNR domain fused to split firefly luciferase fragments (LNR–NLuc and LNR–CLuc), P07207 F1563A (N-Luc copy); F1563A (C-Luc copy) (protein)
chain: T1 chain
B1 was tested, and the ratio to parent [2] was 0.96.

B2: Drosophila Notch LNR domain fused to split firefly luciferase fragments (LNR–NLuc and LNR–CLuc), P07207 H1570A (N-Luc copy); H1570A (C-Luc copy) (protein)
chain: T1 chain with A99F, H106A
With B2 the ratio to parent [3] was 0.87.
